Experimental data: patent publication US20220143214A1
Where “and” joins values, the source holds several entries; their conditions need not be identical. Identical values can stand only once.

How the values were obtained:
[1] = molecular target: LY6C1 (Ly6c1, C57BL/6J mouse, splice variant 1) (mouse (C57BL/6J)) (UniProt P0CW02); experiment: AAV library bound to Ly6c1-transfected HEK293T cells, NGS
[2] = molecular target: LY6A (Ly6a, C57BL/6J mouse) (mouse (C57BL/6J)) (UniProt P05533); experiment: AAV library bound to Ly6a-transfected HEK293T cells, NGS
Sequence of UniProt P05533 (P05533 27-112 limits assumed): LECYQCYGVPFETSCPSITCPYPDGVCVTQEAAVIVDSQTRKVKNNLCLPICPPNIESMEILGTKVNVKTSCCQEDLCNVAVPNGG

Sequence of UniProt P0CW02 (P0CW02 27-109 limits assumed, change not shown): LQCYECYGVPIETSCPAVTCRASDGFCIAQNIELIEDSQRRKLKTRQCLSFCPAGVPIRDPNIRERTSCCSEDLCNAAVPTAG

Row | Substance | fold enrichment (log2) [1] | fold enrichment (log2) [2] [log2]
1 | AAV9 K449R 7-mer variant AADRPFL | -3.32 log2 | 2.73
2 | AAV9 K449R 7-mer variant AGSFKDI | -2.87 log2 | 3.96
3 | AAV9 K449R 7-mer variant AISAPFK | -0.06 log2 | 2.56
4 | AAV9 K449R 7-mer variant AKAGYAS | 4.54 log2 | -0.03
5 | AAV9 K449R 7-mer variant ALAKPFI | -0.19 log2 | 1.91
6 | AAV9 K449R 7-mer variant ALHVPFK | 0.26 log2 | 4.11
7 | AAV9 K449R 7-mer variant ASSKPFL | 1.19 log2 | 3.9
8 | AAV9 K449R 7-mer variant DKAWGST | 3.56 log2 | 0.19
9 | AAV9 K449R 7-mer variant DKQKPFL | 0.94 log2 | 4.6
10 | AAV9 K449R 7-mer variant DKYNFSS | 3.43 log2 | -0.13
11 | AAV9 K449R 7-mer variant DMERPFK | -3.91 log2 | 4.51
12 | AAV9 K449R 7-mer variant DRIHGYS | 4.34 log2 | -0.11
13 | AAV9 K449R 7-mer variant DRKGYSA | 2.77 log2 | -0.39
14 | AAV9 K449R 7-mer variant DSQRPFI | -3.55 log2 | 2.63
15 | AAV9 K449R 7-mer variant DTKWSSS | 4.11 log2 | 0.53
16 | AAV9 K449R 7-mer variant DVKYGSS | 4.92 log2 | -0.36
17 | AAV9 K449R 7-mer variant EDHRYSS | 3.4 log2 | 0.17
18 | AAV9 K449R 7-mer variant EIRGYSS | 4.92 log2 | 0.75
19 | AAV9 K449R 7-mer variant EKKQYSS | 4.45 log2 | 0.89
20 | AAV9 K449R 7-mer variant ESRGFSS | 4.7 log2 | -0.58
21 | AAV9 K449R 7-mer variant ESSKPFR | 1.28 log2 | 3.15
22 | AAV9 K449R 7-mer variant ESTRPFK | 0.28 log2 | 2.87
23 | AAV9 K449R 7-mer variant FLPGYSS | 2.54 log2 | -2.29

Row | Substance | fold enrichment (log2) [1] | fold enrichment (log2) [2] [log2]
24 | AAV9 K449R 7-mer variant FRIGGSS | 4.89 log2 | 1.34
25 | AAV9 K449R 7-mer variant GDNRPFK | 0.57 log2 | 2.65
26 | AAV9 K449R 7-mer variant GESRPFI | -2.08 log2 | 3.32
27 | AAV9 K449R 7-mer variant GGRGLSS | 4.9 log2 | 2
28 | AAV9 K449R 7-mer variant GKHFSST | 4.25 log2 | 2.64
29 | AAV9 K449R 7-mer variant GKTGYST | 2.93 log2 | -3.32
30 | AAV9 K449R 7-mer variant GKTHGYS | 3.87 log2 | 1.65
31 | AAV9 K449R 7-mer variant GNENFSS | 3.45 log2 | -1.43
32 | AAV9 K449R 7-mer variant GSERPFL | -4.2 log2 | 3.78
33 | AAV9 K449R 7-mer variant GSYGYSS | 2.48 log2 | -3.32
34 | AAV9 K449R 7-mer variant GVDRPFK | -1.13 log2 | 3.84
35 | AAV9 K449R 7-mer variant HEHRYST | 3.06 log2 | -4.06
36 | AAV9 K449R 7-mer variant HKTHYSS | 3.24 log2 | 0.86
37 | AAV9 K449R 7-mer variant HNVFKNP | 0.33 log2 | 2.09
38 | AAV9 K449R 7-mer variant HTQGYST | 2.26 log2 | -3.32
39 | AAV9 K449R 7-mer variant IATGYSQ | 2.18 log2 | -3.74
40 | AAV9 K449R 7-mer variant IDRGYSV | 5.3 log2 | -1.04
41 | AAV9 K449R 7-mer variant IRQGYSS | 2.61 log2 | -1.28
42 | AAV9 K449R 7-mer variant IRVGYST | 3.46 log2 | -3.55
43 | AAV9 K449R 7-mer variant IVRGLSS | 3.24 log2 | -1.14
44 | AAV9 K449R 7-mer variant KDKFKDI | -2.08 log2 | 3.38
45 | AAV9 K449R 7-mer variant KQYQGST | 4.88 log2 | 1.54
46 | AAV9 K449R 7-mer variant KTQFKDV | -3.55 log2 | 2.09

Row | Substance | fold enrichment (log2) [1] | fold enrichment (log2) [2] [log2]
47 | AAV9 K449R 7-mer variant LAHTYSS | 3.97 log2 | 0.04
48 | AAV9 K449R 7-mer variant LKKGYST | 2.96 log2 | 1.72
49 | AAV9 K449R 7-mer variant LKTGMSS | 2.74 log2 | -0.66
50 | AAV9 K449R 7-mer variant LKYGTST | 4.88 log2 | 1.24
51 | AAV9 K449R 7-mer variant LLRGASS | 2.96 log2 | -0.33
52 | AAV9 K449R 7-mer variant LNRGSST | 4.15 log2 | 1.72
53 | AAV9 K449R 7-mer variant LRGGYST | 2.88 log2 | -3.32
54 | AAV9 K449R 7-mer variant LRMGASS | 4.17 log2 | 0.91
55 | AAV9 K449R 7-mer variant LRTAYSS | 5.12 log2 | 1.13
56 | AAV9 K449R 7-mer variant LSKGLSS | 3.55 log2 | -3.55
57 | AAV9 K449R 7-mer variant LSMGYST | 2.97 log2 | -3.91
58 | AAV9 K449R 7-mer variant LTKWEST | 3.91 log2 | 0.82
59 | AAV9 K449R 7-mer variant LWAKGST | 3.9 log2 | 1.42
60 | AAV9 K449R 7-mer variant LYAGRSS | 4.13 log2 | 1.03
61 | AAV9 K449R 7-mer variant MERYGSS | 3.83 log2 | -2.28
62 | AAV9 K449R 7-mer variant MMAKPFL | -0.49 log2 | 4.53
63 | AAV9 K449R 7-mer variant MNIGYSA | 2.4 log2 | -1.48
64 | AAV9 K449R 7-mer variant MRTFGSA | 3.97 log2 | 1
65 | AAV9 K449R 7-mer variant MRTLMSS | 3.85 log2 | -0.52
66 | AAV9 K449R 7-mer variant MVRNYST | 3.25 log2 | -0.94
67 | AAV9 K449R 7-mer variant NDQRPFL | -4.33 log2 | 3.27
68 | AAV9 K449R 7-mer variant NERRPFL | 0.77 log2 | 4.31
69 | AAV9 K449R 7-mer variant NGYKGST | 4.98 log2 | 1.24

Row | Substance | fold enrichment (log2) [1] | fold enrichment (log2) [2] [log2]
70 | AAV9 K449R 7-mer variant NIIRPFA | 0.4 log2 | 3.23
71 | AAV9 K449R 7-mer variant NKVGYST | 3.13 log2 | -3.74
72 | AAV9 K449R 7-mer variant NLKRPFA | 0.85 log2 | 2.8
73 | AAV9 K449R 7-mer variant NMERPFR | 0.95 log2 | 2.96
74 | AAV9 K449R 7-mer variant NRGGYAS | 4.53 log2 | -0.18
75 | AAV9 K449R 7-mer variant NSPGWSS | 3.08 log2 | -0.93
76 | AAV9 K449R 7-mer variant NYTGYSS | 4.83 log2 and 4.44 log2 | 
77 | AAV9 K449R 7-mer variant PPSFKNV | -4.33 log2 | 3.69
78 | AAV9 K449R 7-mer variant PYQGASS | 5.24 log2 | -0.53
79 | AAV9 K449R 7-mer variant QDKGYSS | 2.61 log2 | -3.55
80 | AAV9 K449R 7-mer variant QHFGQSS | 4.68 log2 | -0.37
81 | AAV9 K449R 7-mer variant QNARPFV | 1.42 log2 | 1.52
82 | AAV9 K449R 7-mer variant QSAGYST | 2.55 log2 | -1.58
83 | AAV9 K449R 7-mer variant QTLFKNI | -0.72 log2 | 3.07
84 | AAV9 K449R 7-mer variant RATGYSS | 4.75 log2 | 2.49
85 | AAV9 K449R 7-mer variant RIDNPFK | -1.89 log2 | 4.48
86 | AAV9 K449R 7-mer variant RLSFKDV | -1.62 log2 | 2.39
87 | AAV9 K449R 7-mer variant RSDFKDI | -2.44 log2 | 3.45
88 | AAV9 K449R 7-mer variant SEGRPFI | -3.55 log2 | 1.85
89 | AAV9 K449R 7-mer variant SHTKPFA | 0.97 log2 | 4.79
90 | AAV9 K449R 7-mer variant SIARPFV | -3.55 log2 | 3.79
